Data as given in article doi:10.1101/2024.03.07.583849 (bioRxiv, 2024).
Several values for one entry are separate records, joined by “and”; a condition that tells them apart may be missing. Identical values can stand only once.

Molecular target: the molecule itself
Assay: SEC

B1: Chlamydomonas reinhardtii alpha-amylase 2 (AMA2), recombinant full-length enzyme (enzyme, UniProt A0A2K3DGK5 1-706, looked up)
chain: MDRSLLSRTSPRMQLGRPQQLPPPTVPLAQVPRLQRRCVVGSRVCQPVVAVRPGRASAGRGGRLVVSSVDMSNSPLSSMDAGEGLDIMFDNNSDAECTVVTVEGKDKAHLLMSLTGGFSSAGLTVISASITSDDGRVLDVFRVQTADGKKVPEEQFPSVREHILSVTATSSRSSMPAIYGIVAAAEVERLKPLRSQSTQNDVDALELAAAEMTQAVAELVATERDIIRMRASNADARTLQTKEANRTEAAAGLERKMAAMQAVLAARRNLATEPEKPKSPTEKLLETLKPPTPMRAAAGAGSGSGSEILLQAFNWESHRQKLYKQLMGRVKDISDAGFTGVWMPPPSDSVSPQGYLPRDLYSLDSAYGSEAELRELIAAFHQNNIKVIADIVVNHRCANSQGSDGKWNKFGGRLAWDASAICSNNPSFGGRGNPKQGDDYAAAPNIDHSQERIRNDIVQWMKYLRNSIGFDGWRFDFVRGYLGSYCKQYIDETVPAMAFGEYWDSCEYTDGVLNYNQDAHRQRTVNWCDSTGGTSAAFDFTTKGILQEAVGRREYWRLVDSQGRPPGVMGMWPSRAITFIDNHDTGSTLNHWPFPSRNLPEGYAYILTHPGTPCVFYDHFYQEENNLRKIILDLLKVRRRNGLNARSKVVMKKSAADVYAAMIDDKVAVKLGPGDWSPNQSGIKVNGKELKVAASGFQFAVWEGQH
For B1, the “stoichiometry N” value was 2 and 4.
